Source: patent US20220040297A1 (Chugai, published 2022)

Molecular target: T1, CD3ε homodimer protein (human, UniProt P07766 23-126, limits assumed, sulfo-tag or biotin label in some ECL assays)
T1 construct: also called human CD3ε homodimer protein; CD3 (CD3ε)
Assay: SPR, CD3ε homodimer on chip;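 note: biacore SPR with antibody variants flowed as analyte over amine-coupled CD3ε homodimer on a CM chip, bound amount of each single-residue H chain variant over that of parent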
Description: An appropriate amount of CD3ε homodimer protein was immobilized onto Sensor chip CM4 (GE Healthcare Japan Corp.) by the amine coupling method. Then, the antibody having an appropriate concentration was injected thereto as an analyte and allowed to interact with the CD3ε homodimer protein on the sensor chip. Then, the sensor chip was regenerated by the injection of 10 mmol/L glycine-HCl (pH 1.5). The assay was conducted at 25° C., and HBS-EP+ (GE Healthcare Japan Corp.) was used as a running buffer. […] Each parameter was calculated using Biacore T200 Evaluation Software (GE Healthcare Japan Corp.).
Specifically, when the amount of the antibody comprising CE115HA000 bound was defined as X and the amount of the H chain one-amino acid altered form bound was defined as Y, a value of Z (ratio of amounts bound)=Y/X was used.

T1 sequence (P07766 23-126 limits assumed): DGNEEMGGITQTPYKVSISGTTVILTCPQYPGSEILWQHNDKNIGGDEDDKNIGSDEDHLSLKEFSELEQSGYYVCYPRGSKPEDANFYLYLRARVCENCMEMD

Row | Binder | ratio of amounts bound vs CE115HA000
1 | CE115HA000 D101A (antibody, name in Kabat numbering, V domains shown) VH: QVQLVESGGGVVQPGRSLRLSCAASGFTFSNAWMHWVRQAPGKGLEWVAQIKAKSNNYATYYAESVKGRFTISRDDSKNSLYLQMNSLKTEDTAVYYCRYVHYGAYYGVAAWGQGTTVTVSS VL: DIVMTQSPLSLPVTPGEPASISCRSSQSLVHSNRNTYLHWYQQKPGQAPRLLIYKVSNRFSGVPDRFSGSGSGTDFTLKISRVEAEDVGVYYCGQGTQVPYTFGQGTKLEIK | 1.26
2 | CE115HA000 G98A (antibody, name in Kabat numbering, V domains shown) VH: QVQLVESGGGVVQPGRSLRLSCAASGFTFSNAWMHWVRQAPGKGLEWVAQIKAKSNNYATYYAESVKGRFTISRDDSKNSLYLQMNSLKTEDTAVYYCRYVHYAAYYGVDAWGQGTTVTVSS VL: DIVMTQSPLSLPVTPGEPASISCRSSQSLVHSNRNTYLHWYQQKPGQAPRLLIYKVSNRFSGVPDRFSGSGSGTDFTLKISRVEAEDVGVYYCGQGTQVPYTFGQGTKLEIK | 1.1
3 | CE115HA000 D101P (antibody, name in Kabat numbering, V domains shown) VH: QVQLVESGGGVVQPGRSLRLSCAASGFTFSNAWMHWVRQAPGKGLEWVAQIKAKSNNYATYYAESVKGRFTISRDDSKNSLYLQMNSLKTEDTAVYYCRYVHYGAYYGVPAWGQGTTVTVSS VL: DIVMTQSPLSLPVTPGEPASISCRSSQSLVHSNRNTYLHWYQQKPGQAPRLLIYKVSNRFSGVPDRFSGSGSGTDFTLKISRVEAEDVGVYYCGQGTQVPYTFGQGTKLEIK | 0.2
4 | CE115HA000 G98D (antibody, name in Kabat numbering, V domains shown) VH: QVQLVESGGGVVQPGRSLRLSCAASGFTFSNAWMHWVRQAPGKGLEWVAQIKAKSNNYATYYAESVKGRFTISRDDSKNSLYLQMNSLKTEDTAVYYCRYVHYDAYYGVDAWGQGTTVTVSS VL: DIVMTQSPLSLPVTPGEPASISCRSSQSLVHSNRNTYLHWYQQKPGQAPRLLIYKVSNRFSGVPDRFSGSGSGTDFTLKISRVEAEDVGVYYCGQGTQVPYTFGQGTKLEIK | 0.26
5 | CE115HA000 E61Q (antibody, name in Kabat numbering, V domains shown) VH: QVQLVESGGGVVQPGRSLRLSCAASGFTFSNAWMHWVRQAPGKGLEWVAQIKAKSNNYATYYAQSVKGRFTISRDDSKNSLYLQMNSLKTEDTAVYYCRYVHYGAYYGVDAWGQGTTVTVSS VL: DIVMTQSPLSLPVTPGEPASISCRSSQSLVHSNRNTYLHWYQQKPGQAPRLLIYKVSNRFSGVPDRFSGSGSGTDFTLKISRVEAEDVGVYYCGQGTQVPYTFGQGTKLEIK | 1.07
6 | CE115HA000 E61D (antibody, name in Kabat numbering, V domains shown) VH: QVQLVESGGGVVQPGRSLRLSCAASGFTFSNAWMHWVRQAPGKGLEWVAQIKAKSNNYATYYADSVKGRFTISRDDSKNSLYLQMNSLKTEDTAVYYCRYVHYGAYYGVDAWGQGTTVTVSS VL: DIVMTQSPLSLPVTPGEPASISCRSSQSLVHSNRNTYLHWYQQKPGQAPRLLIYKVSNRFSGVPDRFSGSGSGTDFTLKISRVEAEDVGVYYCGQGTQVPYTFGQGTKLEIK | 0.91
7 | CE115HA000 D101I (antibody, name in Kabat numbering, V domains shown) VH: QVQLVESGGGVVQPGRSLRLSCAASGFTFSNAWMHWVRQAPGKGLEWVAQIKAKSNNYATYYAESVKGRFTISRDDSKNSLYLQMNSLKTEDTAVYYCRYVHYGAYYGVIAWGQGTTVTVSS VL: DIVMTQSPLSLPVTPGEPASISCRSSQSLVHSNRNTYLHWYQQKPGQAPRLLIYKVSNRFSGVPDRFSGSGSGTDFTLKISRVEAEDVGVYYCGQGTQVPYTFGQGTKLEIK | 1.18
8 | CE115HA000 G65E (antibody, name in Kabat numbering, V domains shown) VH: QVQLVESGGGVVQPGRSLRLSCAASGFTFSNAWMHWVRQAPGKGLEWVAQIKAKSNNYATYYAESVKERFTISRDDSKNSLYLQMNSLKTEDTAVYYCRYVHYGAYYGVDAWGQGTTVTVSS VL: DIVMTQSPLSLPVTPGEPASISCRSSQSLVHSNRNTYLHWYQQKPGQAPRLLIYKVSNRFSGVPDRFSGSGSGTDFTLKISRVEAEDVGVYYCGQGTQVPYTFGQGTKLEIK | 0.78
9 | CE115HA000 G98P (antibody, name in Kabat numbering, V domains shown) VH: QVQLVESGGGVVQPGRSLRLSCAASGFTFSNAWMHWVRQAPGKGLEWVAQIKAKSNNYATYYAESVKGRFTISRDDSKNSLYLQMNSLKTEDTAVYYCRYVHYPAYYGVDAWGQGTTVTVSS VL: DIVMTQSPLSLPVTPGEPASISCRSSQSLVHSNRNTYLHWYQQKPGQAPRLLIYKVSNRFSGVPDRFSGSGSGTDFTLKISRVEAEDVGVYYCGQGTQVPYTFGQGTKLEIK | 1.03
10 | CE115HA000 D101Q (antibody, name in Kabat numbering, V domains shown) VH: QVQLVESGGGVVQPGRSLRLSCAASGFTFSNAWMHWVRQAPGKGLEWVAQIKAKSNNYATYYAESVKGRFTISRDDSKNSLYLQMNSLKTEDTAVYYCRYVHYGAYYGVQAWGQGTTVTVSS VL: DIVMTQSPLSLPVTPGEPASISCRSSQSLVHSNRNTYLHWYQQKPGQAPRLLIYKVSNRFSGVPDRFSGSGSGTDFTLKISRVEAEDVGVYYCGQGTQVPYTFGQGTKLEIK | 2.25
11 | CE115HA000 G98Q (antibody, name in Kabat numbering, V domains shown) VH: QVQLVESGGGVVQPGRSLRLSCAASGFTFSNAWMHWVRQAPGKGLEWVAQIKAKSNNYATYYAESVKGRFTISRDDSKNSLYLQMNSLKTEDTAVYYCRYVHYQAYYGVDAWGQGTTVTVSS VL: DIVMTQSPLSLPVTPGEPASISCRSSQSLVHSNRNTYLHWYQQKPGQAPRLLIYKVSNRFSGVPDRFSGSGSGTDFTLKISRVEAEDVGVYYCGQGTQVPYTFGQGTKLEIK | 1.23
12 | CE115HA000 E61A (antibody, name in Kabat numbering, V domains shown) VH: QVQLVESGGGVVQPGRSLRLSCAASGFTFSNAWMHWVRQAPGKGLEWVAQIKAKSNNYATYYAASVKGRFTISRDDSKNSLYLQMNSLKTEDTAVYYCRYVHYGAYYGVDAWGQGTTVTVSS VL: DIVMTQSPLSLPVTPGEPASISCRSSQSLVHSNRNTYLHWYQQKPGQAPRLLIYKVSNRFSGVPDRFSGSGSGTDFTLKISRVEAEDVGVYYCGQGTQVPYTFGQGTKLEIK | 1.09
13 | CE115HA000 G65D (antibody, name in Kabat numbering, V domains shown) VH: QVQLVESGGGVVQPGRSLRLSCAASGFTFSNAWMHWVRQAPGKGLEWVAQIKAKSNNYATYYAESVKDRFTISRDDSKNSLYLQMNSLKTEDTAVYYCRYVHYGAYYGVDAWGQGTTVTVSS VL: DIVMTQSPLSLPVTPGEPASISCRSSQSLVHSNRNTYLHWYQQKPGQAPRLLIYKVSNRFSGVPDRFSGSGSGTDFTLKISRVEAEDVGVYYCGQGTQVPYTFGQGTKLEIK | 0.76
14 | CE115HA000 D101M (antibody, name in Kabat numbering, V domains shown) VH: QVQLVESGGGVVQPGRSLRLSCAASGFTFSNAWMHWVRQAPGKGLEWVAQIKAKSNNYATYYAESVKGRFTISRDDSKNSLYLQMNSLKTEDTAVYYCRYVHYGAYYGVMAWGQGTTVTVSS VL: DIVMTQSPLSLPVTPGEPASISCRSSQSLVHSNRNTYLHWYQQKPGQAPRLLIYKVSNRFSGVPDRFSGSGSGTDFTLKISRVEAEDVGVYYCGQGTQVPYTFGQGTKLEIK | 1.2

Now from value to binder:

Row | ratio of amounts bound vs CE115HA000 | Binder
15 | 1.07 | CE115HA000 E61P (antibody, name in Kabat numbering, V domains shown) VH: QVQLVESGGGVVQPGRSLRLSCAASGFTFSNAWMHWVRQAPGKGLEWVAQIKAKSNNYATYYAPSVKGRFTISRDDSKNSLYLQMNSLKTEDTAVYYCRYVHYGAYYGVDAWGQGTTVTVSS VL: DIVMTQSPLSLPVTPGEPASISCRSSQSLVHSNRNTYLHWYQQKPGQAPRLLIYKVSNRFSGVPDRFSGSGSGTDFTLKISRVEAEDVGVYYCGQGTQVPYTFGQGTKLEIK
16 | 6.49 | CE115HA000 D101Y (antibody, name in Kabat numbering, V domains shown) VH: QVQLVESGGGVVQPGRSLRLSCAASGFTFSNAWMHWVRQAPGKGLEWVAQIKAKSNNYATYYAESVKGRFTISRDDSKNSLYLQMNSLKTEDTAVYYCRYVHYGAYYGVYAWGQGTTVTVSS VL: DIVMTQSPLSLPVTPGEPASISCRSSQSLVHSNRNTYLHWYQQKPGQAPRLLIYKVSNRFSGVPDRFSGSGSGTDFTLKISRVEAEDVGVYYCGQGTQVPYTFGQGTKLEIK
17 | 0.79 | CE115HA000 D101T (antibody, name in Kabat numbering, V domains shown) VH: QVQLVESGGGVVQPGRSLRLSCAASGFTFSNAWMHWVRQAPGKGLEWVAQIKAKSNNYATYYAESVKGRFTISRDDSKNSLYLQMNSLKTEDTAVYYCRYVHYGAYYGVTAWGQGTTVTVSS VL: DIVMTQSPLSLPVTPGEPASISCRSSQSLVHSNRNTYLHWYQQKPGQAPRLLIYKVSNRFSGVPDRFSGSGSGTDFTLKISRVEAEDVGVYYCGQGTQVPYTFGQGTKLEIK
18 | 1.58 | CE115HA000 G98F (antibody, name in Kabat numbering, V domains shown) VH: QVQLVESGGGVVQPGRSLRLSCAASGFTFSNAWMHWVRQAPGKGLEWVAQIKAKSNNYATYYAESVKGRFTISRDDSKNSLYLQMNSLKTEDTAVYYCRYVHYFAYYGVDAWGQGTTVTVSS VL: DIVMTQSPLSLPVTPGEPASISCRSSQSLVHSNRNTYLHWYQQKPGQAPRLLIYKVSNRFSGVPDRFSGSGSGTDFTLKISRVEAEDVGVYYCGQGTQVPYTFGQGTKLEIK
19 | 2.83 | CE115HA000 G98H (antibody, name in Kabat numbering, V domains shown) VH: QVQLVESGGGVVQPGRSLRLSCAASGFTFSNAWMHWVRQAPGKGLEWVAQIKAKSNNYATYYAESVKGRFTISRDDSKNSLYLQMNSLKTEDTAVYYCRYVHYHAYYGVDAWGQGTTVTVSS VL: DIVMTQSPLSLPVTPGEPASISCRSSQSLVHSNRNTYLHWYQQKPGQAPRLLIYKVSNRFSGVPDRFSGSGSGTDFTLKISRVEAEDVGVYYCGQGTQVPYTFGQGTKLEIK
20 | 1.38 | CE115HA000 D101G (antibody, name in Kabat numbering, V domains shown) VH: QVQLVESGGGVVQPGRSLRLSCAASGFTFSNAWMHWVRQAPGKGLEWVAQIKAKSNNYATYYAESVKGRFTISRDDSKNSLYLQMNSLKTEDTAVYYCRYVHYGAYYGVGAWGQGTTVTVSS VL: DIVMTQSPLSLPVTPGEPASISCRSSQSLVHSNRNTYLHWYQQKPGQAPRLLIYKVSNRFSGVPDRFSGSGSGTDFTLKISRVEAEDVGVYYCGQGTQVPYTFGQGTKLEIK
21 | 1.33 | CE115HA000 D101V (antibody, name in Kabat numbering, V domains shown) VH: QVQLVESGGGVVQPGRSLRLSCAASGFTFSNAWMHWVRQAPGKGLEWVAQIKAKSNNYATYYAESVKGRFTISRDDSKNSLYLQMNSLKTEDTAVYYCRYVHYGAYYGVVAWGQGTTVTVSS VL: DIVMTQSPLSLPVTPGEPASISCRSSQSLVHSNRNTYLHWYQQKPGQAPRLLIYKVSNRFSGVPDRFSGSGSGTDFTLKISRVEAEDVGVYYCGQGTQVPYTFGQGTKLEIK
